According to article PMC7695701, “Mechanism and inhibition of Streptococcus pneumoniae IgA1 protease” (Nature Communications, 2020):

Biological target: T1, S. pneumoniae IgA1 protease catalytic region (IgA1P residues 665–1963), wild type (Streptococcus pneumoniae, UniProt Q59947)
T1 construct: Streptococcus pneumoniae IgA1 protease (M26 metalloprotease), catalytic region, residues 665-1963 of UniProt Q59947 / NCBI WP_000417171 (D39 and R6 strains); Thrombin cleavage site between MBP and IgA1P; also called IgA1P 665–1963; not shown: MBP, N-terminal, cleaved
T1 sequence (Q59947 665-1963): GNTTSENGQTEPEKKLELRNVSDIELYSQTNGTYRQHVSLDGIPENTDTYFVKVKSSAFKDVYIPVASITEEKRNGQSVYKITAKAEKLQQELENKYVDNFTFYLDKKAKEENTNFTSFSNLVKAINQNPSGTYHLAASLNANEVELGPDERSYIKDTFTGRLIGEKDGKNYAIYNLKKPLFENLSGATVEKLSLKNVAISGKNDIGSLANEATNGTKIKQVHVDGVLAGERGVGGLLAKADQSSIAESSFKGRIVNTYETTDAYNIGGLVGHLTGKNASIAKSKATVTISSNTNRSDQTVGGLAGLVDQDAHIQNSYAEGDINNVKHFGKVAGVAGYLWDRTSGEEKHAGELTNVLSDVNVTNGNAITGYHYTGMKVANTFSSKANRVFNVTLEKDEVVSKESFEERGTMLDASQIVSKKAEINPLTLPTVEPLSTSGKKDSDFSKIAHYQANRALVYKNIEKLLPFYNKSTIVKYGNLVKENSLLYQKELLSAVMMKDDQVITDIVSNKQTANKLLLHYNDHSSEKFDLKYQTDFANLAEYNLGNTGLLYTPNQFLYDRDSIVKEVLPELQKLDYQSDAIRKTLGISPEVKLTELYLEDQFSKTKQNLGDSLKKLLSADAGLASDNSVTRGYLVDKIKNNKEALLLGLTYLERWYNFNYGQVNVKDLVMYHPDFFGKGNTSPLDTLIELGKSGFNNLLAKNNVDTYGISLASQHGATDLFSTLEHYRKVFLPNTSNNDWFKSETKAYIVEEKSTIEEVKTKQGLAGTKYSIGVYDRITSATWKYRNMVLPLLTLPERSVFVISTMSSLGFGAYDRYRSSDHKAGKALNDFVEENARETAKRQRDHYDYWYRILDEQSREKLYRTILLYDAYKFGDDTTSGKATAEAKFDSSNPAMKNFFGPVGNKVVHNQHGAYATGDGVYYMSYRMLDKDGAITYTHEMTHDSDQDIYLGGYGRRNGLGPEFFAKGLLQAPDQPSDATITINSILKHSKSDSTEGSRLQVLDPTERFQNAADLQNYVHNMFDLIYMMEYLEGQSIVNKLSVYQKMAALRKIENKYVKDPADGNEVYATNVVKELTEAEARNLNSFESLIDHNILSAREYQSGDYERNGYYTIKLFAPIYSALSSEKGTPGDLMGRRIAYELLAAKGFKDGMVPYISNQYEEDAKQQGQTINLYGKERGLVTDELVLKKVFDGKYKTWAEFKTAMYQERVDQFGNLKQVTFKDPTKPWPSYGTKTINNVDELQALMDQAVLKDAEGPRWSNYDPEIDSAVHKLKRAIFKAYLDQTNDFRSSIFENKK
Assay: cryo-EM structure; wild type IgA1P (residues 665-1963) with the mAb #2 Fab fragment; same procedure as for the IgA1 complex but in the absence of EDTA; 20 mM HEPES, pH 7.4, 150 mM NaCl
Details: both partners purified

B1: mAb #2 Fab fragment (neutralizing murine monoclonal antibody against IgA1P) (Fab, V domains shown)
VH: EVQLQQSGPELEKPGASMKISCKASGYSFTGYNMNWVKQSNGKSLEWIGSIDPYTGGSNYNQKFMGKATLTVDKSSSTAYMQLKSLTSEDSAVYYCATVVGRVYAMDYWGQGTSVTVSS
VL: EEVLTQSPAIMSASPGEKVTMTCSASSSVSYIHWYQQKSNTSPKLWIYATSKLASGVPGRFSGSGSGNSYSLTISSMEAEDVATYYCFQGSGYPFTFGSGTKLEIK
notes: PDB 3RHW named as the most similar heavy chain; PDB 4HXA named as the most similar light chain; Raised against purified full-length protease; also called neutralizing mAb Fab fragment; source: hybridoma (Balb C mouse spleen cells fused with SP2/0 myeloma cells), IgG purified on Protein G columns; Fab excised with immobilized Ficin
**Q.** Does B1 bind?
**A.** binds
